In US20130323786A1:
Each block holds one binder with its values, some of them ahead of it.

Assays:
LINGO-1 (human) [1] = molecular target: LINGO-1 (human) (UniProt Q96FE5); assay: FACS binding to LINGO-1; the value is listed under the plot without a name and agrees with the half-maximal point of the curve (x axis: Ab (ng/ml) log)
LINGO-1 (human) [2] = molecular target: LINGO-1 (human) (UniProt Q96FE5); assay: affinity vs parent Li62 Fab; method not stated
LINGO-1 (human) [3] = molecular target: LINGO-1 (human) (UniProt Q96FE5); assay: ELISA
LINGO-1 (human) [4] = molecular target: LINGO-1 (human) (UniProt Q96FE5); assay: LINGO-1 ELISA

Fold-Improvement (LINGO-1 (human) [2]): 8 fold
ELISA Signal (LINGO-1 (human) [3]): 3
B3: Li62 variant B01 Fab (VH CDR3 SEQ ID NO:20) (Fab, V domains shown)
VH: EVQLLESGGGLVQPGGSLRLSCAASGFTFSIYPMFWVRQAPGKGLEWVSWIGPSGGITKYADSVKGRFTISRDNSKNTLYLQMNSLRAEDTATYYCAREGQYDWYFELWGRGTLVTVSS
VL: DIQMTQSPSFLSASVGDSVAITCRASQDISRYLAWYQQRPGKAPKLLIYDASNLQTGVPSRFSGSGSGTDFTFTITSLQPEDFGTYYCQQYDTLHPSFGPGTTVDIK

Fold-Improvement (LINGO-1 (human) [2]): 8 fold
ELISA Signal (LINGO-1 (human) [3]): 3
B5: Li62 variant D12 Fab (VH CDR3 SEQ ID NO:22) (Fab, V domains shown)
VH: EVQLLESGGGLVQPGGSLRLSCAASGFTFSIYPMFWVRQAPGKGLEWVSWIGPSGGITKYADSVKGRFTISRDNSKNTLYLQMNSLRAEDTATYYCAREGHYDWYFDLWGRGTLVTVSS
VL: DIQMTQSPSFLSASVGDSVAITCRASQDISRYLAWYQQRPGKAPKLLIYDASNLQTGVPSRFSGSGSGTDFTFTITSLQPEDFGTYYCQQYDTLHPSFGPGTTVDIK

Fold-Improvement (LINGO-1 (human) [2]): 9 fold
ELISA Signal (LINGO-1 (human) [3]): 3
B6: Li62 variant F01 Fab (VH CDR3 SEQ ID NO:23) (Fab, V domains shown)
VH: EVQLLESGGGLVQPGGSLRLSCAASGFTFSIYPMFWVRQAPGKGLEWVSWIGPSGGITKYADSVKGRFTISRDNSKNTLYLQMNSLRAEDTATYYCAREGRYDWYFDPWGRGTLVTVSS
VL: DIQMTQSPSFLSASVGDSVAITCRASQDISRYLAWYQQRPGKAPKLLIYDASNLQTGVPSRFSGSGSGTDFTFTITSLQPEDFGTYYCQQYDTLHPSFGPGTTVDIK

Fold-Improvement (LINGO-1 (human) [2]): 8 fold
ELISA Signal (LINGO-1 (human) [3]): 3
B7: Li62 variant F02 Fab (VH CDR3 SEQ ID NO:24) (Fab, V domains shown)
VH: EVQLLESGGGLVQPGGSLRLSCAASGFTFSIYPMFWVRQAPGKGLEWVSWIGPSGGITKYADSVKGRFTISRDNSKNTLYLQMNSLRAEDTATYYCAREGDYDWYFGLWGRGTLVTVSS
VL: DIQMTQSPSFLSASVGDSVAITCRASQDISRYLAWYQQRPGKAPKLLIYDASNLQTGVPSRFSGSGSGTDFTFTITSLQPEDFGTYYCQQYDTLHPSFGPGTTVDIK

Fold-Improvement (LINGO-1 (human) [2]): 8 fold
ELISA Signal (LINGO-1 (human) [3]): 3
B8: Li62 variant F06 Fab (VH CDR3 SEQ ID NO:25) (Fab, V domains shown)
VH: EVQLLESGGGLVQPGGSLRLSCAASGFTFSIYPMFWVRQAPGKGLEWVSWIGPSGGITKYADSVKGRFTISRDNSKNTLYLQMNSLRAEDTATYYCAREGRYDWYFDLWGRGTLVTVSS
VL: DIQMTQSPSFLSASVGDSVAITCRASQDISRYLAWYQQRPGKAPKLLIYDASNLQTGVPSRFSGSGSGTDFTFTITSLQPEDFGTYYCQQYDTLHPSFGPGTTVDIK

Fold-Improvement (LINGO-1 (human) [2]): 6 fold
ELISA Signal (LINGO-1 (human) [3]): 0.5
B11: Li62 variant H08 Fab (VH CDR3 SEQ ID NO:28) (Fab, V domains shown)
VH: EVQLLESGGGLVQPGGSLRLSCAASGFTFSIYPMFWVRQAPGKGLEWVSWIGPSGGITKYADSVKGRFTISRDNSKNTLYLQMNSLRAEDTATYYCAREGHYNGYFDLWGRGTLVTVSS
VL: DIQMTQSPSFLSASVGDSVAITCRASQDISRYLAWYQQRPGKAPKLLIYDASNLQTGVPSRFSGSGSGTDFTFTITSLQPEDFGTYYCQQYDTLHPSFGPGTTVDIK

Fold-Improvement (LINGO-1 (human) [2]): 11 fold
ELISA Signal (LINGO-1 (human) [3]): 3
B12: Li62 variant C10 Fab (VH CDR3 SEQ ID NO:29) (Fab, V domains shown)
VH: EVQLLESGGGLVQPGGSLRLSCAASGFTFSIYPMFWVRQAPGKGLEWVSWIGPSGGITKYADSVKGRFTISRDNSKNTLYLQMNSLRAEDTATYYCAREGYYDWYFDLWGRGTLVTVSS
VL: DIQMTQSPSFLSASVGDSVAITCRASQDISRYLAWYQQRPGKAPKLLIYDASNLQTGVPSRFSGSGSGTDFTFTITSLQPEDFGTYYCQQYDTLHPSFGPGTTVDIK

Fold-Improvement (LINGO-1 (human) [2]): 8 fold
ELISA Signal (LINGO-1 (human) [3]): 3
EC50 (LINGO-1 (human) [4]): 0.09 nM
B13: Li113 Fab (Li62 variant C02, VH CDR3 SEQ ID NO:30) (Fab, V domains shown)
VH: EVQLLESGGGLVQPGGSLRLSCAASGFTFSIYPMFWVRQAPGKGLEWVSWIGPSGGITKYADSVKGRFTISRDNSKNTLYLQMNSLRAEDTATYYCAREGTYDWYLDLWGRGTLVTVSS
VL: DIQMTQSPSFLSASVGDSVAITCRASQDISRYLAWYQQRPGKAPKLLIYDASNLQTGVPSRFSGSGSGTDFTFTITSLQPEDFGTYYCQQYDTLHPSFGPGTTVDIK

Fold-Improvement (LINGO-1 (human) [2]): 10 fold
ELISA Signal (LINGO-1 (human) [3]): 3
B14: Li62 variant D05 Fab (VH CDR3 SEQ ID NO:31) (Fab, V domains shown)
VH: EVQLLESGGGLVQPGGSLRLSCAASGFTFSIYPMFWVRQAPGKGLEWVSWIGPSGGITKYADSVKGRFTISRDNSKNTLYLQMNSLRAEDTATYYCAREGYYDWYFELWGRGTLVTVSS
VL: DIQMTQSPSFLSASVGDSVAITCRASQDISRYLAWYQQRPGKAPKLLIYDASNLQTGVPSRFSGSGSGTDFTFTITSLQPEDFGTYYCQQYDTLHPSFGPGTTVDIK

Fold-Improvement (LINGO-1 (human) [2]): 9 fold
ELISA Signal (LINGO-1 (human) [3]): 3
B17: Li62 variant H08 Fab (VH CDR3 SEQ ID NO:34) (Fab, V domains shown)
VH: EVQLLESGGGLVQPGGSLRLSCAASGFTFSIYPMFWVRQAPGKGLEWVSWIGPSGGITKYADSVKGRFTISRDNSKNTLYLQMNSLRAEDTATYYCAREGTYDWYFDLWGRGTLVTVSS
VL: DIQMTQSPSFLSASVGDSVAITCRASQDISRYLAWYQQRPGKAPKLLIYDASNLQTGVPSRFSGSGSGTDFTFTITSLQPEDFGTYYCQQYDTLHPSFGPGTTVDIK

Fold-Improvement (LINGO-1 (human) [2]): 8 fold
ELISA Signal (LINGO-1 (human) [3]): 3
B19: Li62 variant B12 Fab (VH CDR3 SEQ ID NO:18) (Fab, V domains shown)
VH: EVQLLESGGGLVQPGGSLRLSCAASGFTFSIYPMFWVRQAPGKGLEWVSWIGPSGGITKYADSVKGRFTISRDNSKNTLYLQMNSLRAEDTATYYCAREGQYDWYFDVWGRGTLVTVSS
VL: DIQMTQSPSFLSASVGDSVAITCRASQDISRYLAWYQQRPGKAPKLLIYDASNLQTGVPSRFSGSGSGTDFTFTITSLQPEDFGTYYCQQYDTLHPSFGPGTTVDIK

Continued, binder first:

B1: N-terminally PEGylated Li113 (Fab, V domains shown)
VH: EVQLLESGGGLVQPGGSLRLSCAASGFTFSIYPMFWVRQAPGKGLEWVSWIGPSGGITKYADSVKGRFTISRDNSKNTLYLQMNSLRAEDTATYYCAREGTYDWYLDLWGRGTLVTVSS
VL: DIQMTQSPSFLSASVGDSVAITCRASQDISRYLAWYQQRPGKAPKLLIYDASNLQTGVPSRFSGSGSGTDFTFTITSLQPEDFGTYYCQQYDTLHPSFGPGTTVDIK
modifications: N-terminal 20 kDa methoxy-polyethyleneglycol propionaldehyde; chain carrying it not stated
EC50 (LINGO-1 (human) [1]): 0.182 µg/mL

B2: Li62 variant F06 Fab (VH CDR3 SEQ ID NO:19) (Fab, V domains shown)
VH: EVQLLESGGGLVQPGGSLRLSCAASGFTFSIYPMFWVRQAPGKGLEWVSWIGPSGGITKYADSVKGRFTISRDNSKNTLYLQMNSLRAEDTATYYCAREGDYDWYFDLWGRGTLVTVSS
VL: DIQMTQSPSFLSASVGDSVAITCRASQDISRYLAWYQQRPGKAPKLLIYDASNLQTGVPSRFSGSGSGTDFTFTITSLQPEDFGTYYCQQYDTLHPSFGPGTTVDIK
Fold-Improvement (LINGO-1 (human) [2]): 12 fold
ELISA Signal (LINGO-1 (human) [3]): 3

B4: Li62 variant D09 Fab (VH CDR3 SEQ ID NO:21) (Fab, V domains shown)
VH: EVQLLESGGGLVQPGGSLRLSCAASGFTFSIYPMFWVRQAPGKGLEWVSWIGPSGGITKYADSVKGRFTISRDNSKNTLYLQMNSLRAEDTATYYCAREADIDWFFDLWGRGTLVTVSS
VL: DIQMTQSPSFLSASVGDSVAITCRASQDISRYLAWYQQRPGKAPKLLIYDASNLQTGVPSRFSGSGSGTDFTFTITSLQPEDFGTYYCQQYDTLHPSFGPGTTVDIK
Fold-Improvement (LINGO-1 (human) [2]): 15 fold
ELISA Signal (LINGO-1 (human) [3]): 3

B9: Li62 variant F10 Fab (VH CDR3 SEQ ID NO:26) (Fab, V domains shown)
VH: EVQLLESGGGLVQPGGSLRLSCAASGFTFSIYPMFWVRQAPGKGLEWVSWIGPSGGITKYADSVKGRFTISRDNSKNTLYLQMNSLRAEDTATYYCARESHIDRYFDLWGRGTLVTVSS
VL: DIQMTQSPSFLSASVGDSVAITCRASQDISRYLAWYQQRPGKAPKLLIYDASNLQTGVPSRFSGSGSGTDFTFTITSLQPEDFGTYYCQQYDTLHPSFGPGTTVDIK
Fold-Improvement (LINGO-1 (human) [2]): 5 fold
ELISA Signal (LINGO-1 (human) [3]): 3

B10: Li62 variant G08 Fab (VH CDR3 SEQ ID NO:27) (Fab, V domains shown)
VH: EVQLLESGGGLVQPGGSLRLSCAASGFTFSIYPMFWVRQAPGKGLEWVSWIGPSGGITKYADSVKGRFTISRDNSKNTLYLQMNSLRAEDTATYYCAREGQYDWYFDVWGRGTLVTVSS
VL: DIQMTQSPSFLSASVGDSVAITCRASQDISRYLAWYQQRPGKAPKLLIYDASNLQTGVPSRFSGSGSGTDFTFTITSLQPEDFGTYYCQQYDTLHPSFGPGTTVDIK
Fold-Improvement (LINGO-1 (human) [2]): 10 fold
ELISA Signal (LINGO-1 (human) [3]): 3

B15: Li62 variant F02 Fab (VH CDR3 SEQ ID NO:32) (Fab, V domains shown)
VH: EVQLLESGGGLVQPGGSLRLSCAASGFTFSIYPMFWVRQAPGKGLEWVSWIGPSGGITKYADSVKGRFTISRDNSKNTLYLQMNSLRAEDTATYYCAREGLIDWFFDQWGRGTLVTVSS
VL: DIQMTQSPSFLSASVGDSVAITCRASQDISRYLAWYQQRPGKAPKLLIYDASNLQTGVPSRFSGSGSGTDFTFTITSLQPEDFGTYYCQQYDTLHPSFGPGTTVDIK
Fold-Improvement (LINGO-1 (human) [2]): 16 fold
ELISA Signal (LINGO-1 (human) [3]): 3

B16: Li62 variant C10 Fab (VH CDR3 SEQ ID NO:33) (Fab, V domains shown)
VH: EVQLLESGGGLVQPGGSLRLSCAASGFTFSIYPMFWVRQAPGKGLEWVSWIGPSGGITKYADSVKGRFTISRDNSKNTLYLQMNSLRAEDTATYYCAREGQFDWYFDLWGRGTLVTVSS
VL: DIQMTQSPSFLSASVGDSVAITCRASQDISRYLAWYQQRPGKAPKLLIYDASNLQTGVPSRFSGSGSGTDFTFTITSLQPEDFGTYYCQQYDTLHPSFGPGTTVDIK
Fold-Improvement (LINGO-1 (human) [2]): 9 fold
ELISA Signal (LINGO-1 (human) [3]): 3

B18: Li62 variant B06 Fab (VH CDR3 SEQ ID NO:17) (Fab, V domains shown)
VH: EVQLLESGGGLVQPGGSLRLSCAASGFTFSIYPMFWVRQAPGKGLEWVSWIGPSGGITKYADSVKGRFTISRDNSKNTLYLQMNSLRAEDTATYYCAREGYYDWYFDQWGRGTLVTVSS
VL: DIQMTQSPSFLSASVGDSVAITCRASQDISRYLAWYQQRPGKAPKLLIYDASNLQTGVPSRFSGSGSGTDFTFTITSLQPEDFGTYYCQQYDTLHPSFGPGTTVDIK
Fold-Improvement (LINGO-1 (human) [2]): 8 fold
ELISA Signal (LINGO-1 (human) [3]): 3

B20: Li62 Fab (Fab, V domains shown)
VH: EVQLLESGGGLVQPGGSLRLSCAASGFTFSIYPMFWVRQAPGKGLEWVSWIGPSGGITKYADSVKGRFTISRDNSKNTLYLQMNSLRAEDTATYYCAREGHNDWYFDLWGRGTLVTVSS
VL: DIQMTQSPSFLSASVGDSVAITCRASQDISRYLAWYQQRPGKAPKLLIYDASNLQTGVPSRFSGSGSGTDFTFTITSLQPEDFGTYYCQQYDTLHPSFGPGTTVDIK
EC50 (LINGO-1 (human) [4]): 0.26 nM
